Assay results published in the supplement of paper PMC9170038.

System: MS2 coat protein
Assay: apparent KD of MS2 coat protein; higher = weaker reporter binding
Details: Eterna round: R107; input ligand: arginine 13.2 mM
Procedure, shortened: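 Normalised binding curves from single clusters were fitted, and the median fit for each design is given as apparent KD. The clusters held designed RNA switches transcribed on-chip from Illumina sequencing clusters. These were titrated with SNAP-549-labelled MS2 coat protein (twofold steps from 0.7 or 1.5 nM to 3 µM, 0.8–1.5 h to 10–20 min per step) in 100 mM Tris-HCl pH 7.5, 80 mM KCl, 4 mM MgCl2, without or with constant ligand.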

Sequence | apparent KD of MS2 coat protein
AAACGUUGCUCAGAUACCAGACAUGAGGAUCACCCAUGUACCGAGGUACCCGAAAGGAAUGUCCCUUGGCAGCUGAGCAACGAAA [MAT - Exclusion Theophlline B - Mod of Eli - D23] | 14.6 nM
CGAGCUGACGGAAGGAGCGAAGCCUACUCGGUGUUCCCACAUGAGGAUCACCCAUGUGGGCUUCAGGUAGGUCGCCGAACAGUCG [Vecequlala] | 26.1 nM
UAUCGUCAGACGGCCGCCACUAGAACAUGAGGAUCACCCAUGUACGGCCGCUCGGUCCUCAUGACUAGGACCGGGUCUGACGAAU [(Trp1)-(Ms2)-(T)'-(M)'-(Trp2)_Design22] | 10.8 nM
AAGACAUGAGGAUCACCCAUGUCGUCAACACGAGGACCGGUACGGCCGCCACUCGCAUGCCAAUGAGCGCAUGCGGCCUGGGUAU [Exclusion Tryp A GF4] | 8.77 nM
AGCAUCUAGUCGGCCGCCACUCUUAUUACAUGAGGAUCACCCAUGUUUAAUUCAUGGUUAUAUUUGAGGACCGGGACAUUUGCAU [JR_ExcTryptoB_Sub007] | 39.7 nM
AUUCAUAACUGAAGGAGCGUGAUAUAAAUUUUUACAUGAGGAUCACCCAUGUUUCAUCGAUCACAGGUAGGUCGCAGAUUCUCAU [JR_SSArginiB_Sub012] | 31.1 nM
UCACGAGGCCUGGAUACCAGCGACAUGAGGAUCACCCAUGUAUGAGGAUCAGCCAUGUUAUGCCCUUGGCAGCCACGAAGGUCAU [XZZMULLIN] | 14.5 nM
AAGACGGUCGGAAGGAGCGGUACAUGAGGAUCACCCAUGUAUUCCUGGGCAUCCGUAGUGUGCCAGGUAGGUCGCCGAUUGCGGG [XArg-B13] | 40.3 nM
GCACAUGAGGAUCACCCAUGUAUUACUGAAGGAGCGAGACAGAACUCAGGUAGGUCGCAGACGGCGGAAUCGCCGACGACAUGGG [Exclusion Arginine A GF23] | 20.3 nM
ACAUUGCGCACGGCCGCCACUGGCUAUAGAUUUAUAGCAUUAAUGAACAUGAGGAUCACCCAUGUCAGGACCGGGUGCGAACCAU [SSTryp B #9] | 14 nM
GAGCACAUGAGGAUCACCCAUGUUGGCACACGAGGACCGGUACGGCCGCCACUCGCGGCGGGAAUAACUUUGCGCAGAUGAUGGG [theeternabot_sameState_MS2_Trp_A_50] | 27.5 nM
ACAUGUCUUAUAGAUACCAGACAGGACAUGAGGAUCACCCAUGUAAUGUAUACAUGCAGAGUCCCUUGGCAGCUAAGGUCAUAGA [#26 Same State - Theophylline B] | 54.6 nM
GUCGGUACGUCGGCAAAGCCGAUGUGCCAGCGAGGACCGGUACGGCCGCCACUCGUACAUGAGGAUCACCCAUGUCCGGUCCGAC [Omei Trp SS A C v4] | 44.7 nM
GAUCUGUCGGGUGAUACCAGCCUCGGCGCGUCUCGCGCUGAACAUGAGGAUCACCCAUGUGGCCCUUGGCAGCACAUGACAAAUC [Ditere] | 189 nM
GGGUGGUAGGCGGCCGCCACUGAUUUUCAUUUAUAGAUGACAUGAGGAUCACCCAUGUUUAUGUGCAGGACCGGGCCUGCUGUGG [aaaT] | 102 nM
GGAUGCGGCACGGCCGCCACUGCGGUGGUGUGACAUGAGGAUCACCCAUGUUGUCAUGCGGCCCUUAGGACCGGGUGGCGUGUCC [#1 Exclusion - Tryptophan B Attempt #19 (HarryS)] | 37.2 nM
UAUUAUCAGUCGGCCGCCACUGACACAUGAGGAUCACCCAUGUAAUUUGGGUUAUAUAGAAAAUACAGGACCGGGACUAAGGCUA [JR_ExcTryptoB_Sub014] | 87.5 nM
UGUAUGGACUGAAGGAGCGCCUCAAAAUAACAUGAGGAUCACCCAUGUAAGGCGAAAGCCGGGCAGGUAGGUCGCAGUCCAUACU [ArgBX 3 #StaticStem #MS2Late] | 15.8 nM
AUGCAACAUGAGGAUCACCCAUGUGGUGAUACCAGUCGACAAGUAGACCCUUGGCAGCACAGCCGAUAUCGAGAGAGAUUUUUGG [theeternabot_sameState_MS2_Theo_A_23] | 64.4 nM
GUAAGACAUGAGGAUCACCCAUGUGUCGAUACCAGCCCUGCCUCUGGCCCUUGGCAGCGACUCGCACACCUCGCACUGCACAAGU [theeternabot_sameState_MS2_Theo_A_13] | 42.6 nM
CGAGUGCUGUCGGCCGCCACUGCACAUGAGGAUCACCCAUGUAAAAGCUGGCUGUGACUGGUGUUCAGGACCGGGACAGGGUCUU [Inriedzaan] | 10.9 nM
GAUGAACUAUUUGAUACCAGACUACAUGAGGAUCACCCAUGUGAGUUUAUACUUCUGUCAGUCCCUUGGCAGCAAAUAGUUUAUC [XTheo B #5] | 21.5 nM
GUCUUGGGAUCGGCCGCCACUACAUGAGGAUCACCCAUGUGGACAAAUAGGGUUUUUAAGCUCGGUAGGACCGGGAUUCGGACAU [Marasosoge] | 12.9 nM
UGUAUGGACUGAAGGAGCGGGUAAUAAAUCUGAGGAUCACCCAGGUAAUAGGCGAAAGCCGCCCAGGUAGGUCGCAGUCCAUACU | 13.3 nM
AGGACAUCGGGAAGGAGCGCAUCCAAACCACACAUGAGGAUCACCCAUGUAUAAAUAUGCAUGCAGGUAGGUCGCCCGGUGUCUC [Veaza] | 77 nM
AUACCUAAUGUUACAUUUUCCUUUUCAGAUACCAGACUUUACGUUGUCCCUUGGCAGCUGUAUCACAUGAGGAUCACCCAUGUUG [JR_SSTheophyA_Sub009] | 17.3 nM
GCACAAGAUGGAAGGAGCGCUGGAAAAGGUCACAUGAGGAUCACCCAUGUUCUCCUAACCGAGCAGGUAGGUCGCCAUCUUGUGC [SSAB NP+V+V2 #1] | 24 nM
AUAACAUGAGGAUCACCCAUGUAAGCUGAAGGAGCGGACGAAAGUCCAGGUAGGUCGCAGCGCUCCUUCUGGUGAUCUGAAGGAG [(M1)-(M2)-(Arg1)-(Arg2)-(A)'-(M)'-(A)''_Design3] | 103 nM
CAUCCUAGUACAUGAGGAUCACCCAUGUAUCGAGGACCGGUACGGCCGCCACUCGAAUGGCGGAUCGUUGAUCCUUUAGGAUGAA [Tryp A Ex t4] | 16.5 nM

Same assay, conditions: Eterna round: R107; input ligand: none

Sequence | apparent KD of MS2 coat protein
CGAGCUGACGGAAGGAGCGAAGCCUACUCGGUGUUCCCACAUGAGGAUCACCCAUGUGGGCUUCAGGUAGGUCGCCGAACAGUCG [Vecequlala] | 40.7 nM
UAUCGUCAGACGGCCGCCACUAGAACAUGAGGAUCACCCAUGUACGGCCGCUCGGUCCUCAUGACUAGGACCGGGUCUGACGAAU [(Trp1)-(Ms2)-(T)'-(M)'-(Trp2)_Design22] | 7.31 nM
AAGACAUGAGGAUCACCCAUGUCGUCAACACGAGGACCGGUACGGCCGCCACUCGCAUGCCAAUGAGCGCAUGCGGCCUGGGUAU [Exclusion Tryp A GF4] | 14.8 nM
AUUCAUAACUGAAGGAGCGUGAUAUAAAUUUUUACAUGAGGAUCACCCAUGUUUCAUCGAUCACAGGUAGGUCGCAGAUUCUCAU [JR_SSArginiB_Sub012] | 55.3 nM
AAGACGGUCGGAAGGAGCGGUACAUGAGGAUCACCCAUGUAUUCCUGGGCAUCCGUAGUGUGCCAGGUAGGUCGCCGAUUGCGGG [XArg-B13] | 37.9 nM
GCACAUGAGGAUCACCCAUGUAUUACUGAAGGAGCGAGACAGAACUCAGGUAGGUCGCAGACGGCGGAAUCGCCGACGACAUGGG [Exclusion Arginine A GF23] | 36.7 nM
GAGCACAUGAGGAUCACCCAUGUUGGCACACGAGGACCGGUACGGCCGCCACUCGCGGCGGGAAUAACUUUGCGCAGAUGAUGGG [theeternabot_sameState_MS2_Trp_A_50] | 23.9 nM
GUCGGUACGUCGGCAAAGCCGAUGUGCCAGCGAGGACCGGUACGGCCGCCACUCGUACAUGAGGAUCACCCAUGUCCGGUCCGAC [Omei Trp SS A C v4] | 134 nM
GGGUGGUAGGCGGCCGCCACUGAUUUUCAUUUAUAGAUGACAUGAGGAUCACCCAUGUUUAUGUGCAGGACCGGGCCUGCUGUGG [aaaT] | 68 nM
UGUAUGGACUGAAGGAGCGCCUCAAAAUAACAUGAGGAUCACCCAUGUAAGGCGAAAGCCGGGCAGGUAGGUCGCAGUCCAUACU [ArgBX 3 #StaticStem #MS2Late] | 11.2 nM
UGUAUGGACUGAAGGAGCGGGUAAUAAAUCUGAGGAUCACCCAGGUAAUAGGCGAAAGCCGCCCAGGUAGGUCGCAGUCCAUACU | 14.7 nM
AGGACAUCGGGAAGGAGCGCAUCCAAACCACACAUGAGGAUCACCCAUGUAUAAAUAUGCAUGCAGGUAGGUCGCCCGGUGUCUC [Veaza] | 109 nM
GCACAAGAUGGAAGGAGCGCUGGAAAAGGUCACAUGAGGAUCACCCAUGUUCUCCUAACCGAGCAGGUAGGUCGCCAUCUUGUGC [SSAB NP+V+V2 #1] | 23.7 nM
AUAACAUGAGGAUCACCCAUGUAAGCUGAAGGAGCGGACGAAAGUCCAGGUAGGUCGCAGCGCUCCUUCUGGUGAUCUGAAGGAG [(M1)-(M2)-(Arg1)-(Arg2)-(A)'-(M)'-(A)''_Design3] | 151 nM
CAUCCUAGUACAUGAGGAUCACCCAUGUAUCGAGGACCGGUACGGCCGCCACUCGAAUGGCGGAUCGUUGAUCCUUUAGGAUGAA [Tryp A Ex t4] | 14.3 nM

Same assay, conditions: Eterna round: R107; input ligand: theophylline 20 uM

Sequence | apparent KD of MS2 coat protein
AAACGUUGCUCAGAUACCAGACAUGAGGAUCACCCAUGUACCGAGGUACCCGAAAGGAAUGUCCCUUGGCAGCUGAGCAACGAAA [MAT - Exclusion Theophlline B - Mod of Eli - D23] | 19 nM
CGAGCUGACGGAAGGAGCGAAGCCUACUCGGUGUUCCCACAUGAGGAUCACCCAUGUGGGCUUCAGGUAGGUCGCCGAACAGUCG [Vecequlala] | 61 nM
UAUCGUCAGACGGCCGCCACUAGAACAUGAGGAUCACCCAUGUACGGCCGCUCGGUCCUCAUGACUAGGACCGGGUCUGACGAAU [(Trp1)-(Ms2)-(T)'-(M)'-(Trp2)_Design22] | 16.9 nM
AAGACAUGAGGAUCACCCAUGUCGUCAACACGAGGACCGGUACGGCCGCCACUCGCAUGCCAAUGAGCGCAUGCGGCCUGGGUAU [Exclusion Tryp A GF4] | 18 nM
AGCAUCUAGUCGGCCGCCACUCUUAUUACAUGAGGAUCACCCAUGUUUAAUUCAUGGUUAUAUUUGAGGACCGGGACAUUUGCAU [JR_ExcTryptoB_Sub007] | 70.2 nM
AUUCAUAACUGAAGGAGCGUGAUAUAAAUUUUUACAUGAGGAUCACCCAUGUUUCAUCGAUCACAGGUAGGUCGCAGAUUCUCAU [JR_SSArginiB_Sub012] | 59.1 nM
UCACGAGGCCUGGAUACCAGCGACAUGAGGAUCACCCAUGUAUGAGGAUCAGCCAUGUUAUGCCCUUGGCAGCCACGAAGGUCAU [XZZMULLIN] | 26.5 nM
AAGACGGUCGGAAGGAGCGGUACAUGAGGAUCACCCAUGUAUUCCUGGGCAUCCGUAGUGUGCCAGGUAGGUCGCCGAUUGCGGG [XArg-B13] | 91.7 nM
GCACAUGAGGAUCACCCAUGUAUUACUGAAGGAGCGAGACAGAACUCAGGUAGGUCGCAGACGGCGGAAUCGCCGACGACAUGGG [Exclusion Arginine A GF23] | 66.5 nM
ACAUUGCGCACGGCCGCCACUGGCUAUAGAUUUAUAGCAUUAAUGAACAUGAGGAUCACCCAUGUCAGGACCGGGUGCGAACCAU [SSTryp B #9] | 22.7 nM
GAGCACAUGAGGAUCACCCAUGUUGGCACACGAGGACCGGUACGGCCGCCACUCGCGGCGGGAAUAACUUUGCGCAGAUGAUGGG [theeternabot_sameState_MS2_Trp_A_50] | 37.5 nM
ACAUGUCUUAUAGAUACCAGACAGGACAUGAGGAUCACCCAUGUAAUGUAUACAUGCAGAGUCCCUUGGCAGCUAAGGUCAUAGA [#26 Same State - Theophylline B] | 110 nM
GUCGGUACGUCGGCAAAGCCGAUGUGCCAGCGAGGACCGGUACGGCCGCCACUCGUACAUGAGGAUCACCCAUGUCCGGUCCGAC [Omei Trp SS A C v4] | 139 nM
GAUCUGUCGGGUGAUACCAGCCUCGGCGCGUCUCGCGCUGAACAUGAGGAUCACCCAUGUGGCCCUUGGCAGCACAUGACAAAUC [Ditere] | 488 nM
